This is an account of results in patent US20040001835A1, “Prevention or treatment of cancer using integrin alphavbeta3 antagonists in combination with other agents” (MedImmune, Inc., priority 2002, published 2004).

Entries after “also recorded” stand apart in the source; their conditions may differ.

The test system of one experiment is hamster αvβ3. Put plainly: Flow cytometric analysis of antibody binding to cell lines. Here is the method: (§1) FIG. 2. Flow cytometric analysis of antibody binding to tumor cell lines. […] Rat αvβ3 was not recognized by any of the three antibodies but was detected by the anti-rat αvβ3 control antibody.
(§2) Cells (5×10^5) were incubated with 0.5 μg of antibody and bound antibody was detected with a phycoerythrin-labeled secondary antibody. Mean channel fluorescence results are expressed as fold increase over an isotype matched control antibody. The mouse anti-rat β3 antibody F11 was included for as a positive control for the rat cell line RG2. HMVEC, human microvascular endothelial cells; ND, not done.
(Flow cytometry measures light scatter and fluorescence of single cells or particles in a stream.)

The target of a further experiment is T1, Rat αvβ3 (Rattus norvegicus, UniProt Q8R2H2).
T1 construct: endogenous in cells; host or cells: RG2 glioma
T1 sequence (Q8R2H2 26-787): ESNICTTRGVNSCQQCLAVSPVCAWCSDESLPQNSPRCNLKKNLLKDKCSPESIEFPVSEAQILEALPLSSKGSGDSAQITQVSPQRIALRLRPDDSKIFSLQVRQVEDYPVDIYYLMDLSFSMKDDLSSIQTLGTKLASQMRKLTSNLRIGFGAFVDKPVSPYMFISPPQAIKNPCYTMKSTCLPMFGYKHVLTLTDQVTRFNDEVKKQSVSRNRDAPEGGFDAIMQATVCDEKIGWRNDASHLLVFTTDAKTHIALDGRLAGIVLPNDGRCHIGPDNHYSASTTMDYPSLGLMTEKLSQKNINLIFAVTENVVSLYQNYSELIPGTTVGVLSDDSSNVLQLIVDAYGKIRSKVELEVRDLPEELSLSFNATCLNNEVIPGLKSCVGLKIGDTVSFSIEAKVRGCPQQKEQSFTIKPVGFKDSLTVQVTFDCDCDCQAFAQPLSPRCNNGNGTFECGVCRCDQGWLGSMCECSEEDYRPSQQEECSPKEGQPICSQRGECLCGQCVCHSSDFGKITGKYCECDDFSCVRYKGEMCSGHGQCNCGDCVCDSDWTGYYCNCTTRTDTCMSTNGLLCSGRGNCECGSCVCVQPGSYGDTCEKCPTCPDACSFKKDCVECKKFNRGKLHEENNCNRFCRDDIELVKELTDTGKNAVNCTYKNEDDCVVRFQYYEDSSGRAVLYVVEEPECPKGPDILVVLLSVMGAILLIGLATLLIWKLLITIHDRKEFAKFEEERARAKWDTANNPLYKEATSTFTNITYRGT
The description is as above. To be noted: Rat RG2 glioma; 5×10^5 cells, 0.5 μg antibody; vs isotype matched control antibody. Here is the method:
as §1, §2

Another experiment addresses T2, human αvβ3 (Homo sapiens, UniProt P05106).
T2 construct: endogenous in cells; host or cells: M21 melanoma, HMVEC, HUVEC
Described as above. To be noted: for Fold Increase Over Control (mean channel fluorescence): 5×10^5 cells, 0.5 μg antibody, vs isotype matched control antibody. Here is the method: as §1, §2

The next experiment concerns Rabbit αvβ3. The description is as above. Here is the method: as §1, §2
Experiment [1] has as its target T3, αvβ3 expressed on placenta (placental trophoblasts) (Homo sapiens, UniProt P05106).
T3 construct: from tissue; host or cells: placenta (frozen sections)
Put plainly: Immunohistochemical staining of placental trophoblasts. The experiment is classed as binding. To be noted: frozen thin sections, antibody 10 μg/ml. Here is the method:
(§3) Table 3. Immunohistochemical staining of placental trophoblasts. Placental tissue, a rich source of αvβ3, was collected either immediately after parturition or from freshly-sacrificed, late-term pregnant animals. Tissue fragments, approximately 1 cm^3, were frozen in OCT, and thin sections were stained with monoclonal antibodies (10 μg/ml) at Sierra Biomedical (Sparks, Nev.). Vitaxin® recognized αvβ3 expressed on human, monkey, guinea pig, hamster and rabbit placenta, while […] with human and monkey αvβ3. […] ND, not done.

The target in experiment [2] is T4, αvβ3 expressed on placenta (placental trophoblasts) (Rattus norvegicus, UniProt Q8R2H2).
T4 construct: from tissue; host or cells: placenta (frozen sections)
T4 sequence (Q8R2H2 26-787): T1 sequence (Q8R2H2 26-787)
The description is as above. Type of experiment: binding. To be noted: frozen thin sections, antibody 10 μg/ml. Here is the method: as §3

Setting [3] is: flow cytometry, tumor cell lines, FIG. 2.

T2 sequence (P05106 27-788): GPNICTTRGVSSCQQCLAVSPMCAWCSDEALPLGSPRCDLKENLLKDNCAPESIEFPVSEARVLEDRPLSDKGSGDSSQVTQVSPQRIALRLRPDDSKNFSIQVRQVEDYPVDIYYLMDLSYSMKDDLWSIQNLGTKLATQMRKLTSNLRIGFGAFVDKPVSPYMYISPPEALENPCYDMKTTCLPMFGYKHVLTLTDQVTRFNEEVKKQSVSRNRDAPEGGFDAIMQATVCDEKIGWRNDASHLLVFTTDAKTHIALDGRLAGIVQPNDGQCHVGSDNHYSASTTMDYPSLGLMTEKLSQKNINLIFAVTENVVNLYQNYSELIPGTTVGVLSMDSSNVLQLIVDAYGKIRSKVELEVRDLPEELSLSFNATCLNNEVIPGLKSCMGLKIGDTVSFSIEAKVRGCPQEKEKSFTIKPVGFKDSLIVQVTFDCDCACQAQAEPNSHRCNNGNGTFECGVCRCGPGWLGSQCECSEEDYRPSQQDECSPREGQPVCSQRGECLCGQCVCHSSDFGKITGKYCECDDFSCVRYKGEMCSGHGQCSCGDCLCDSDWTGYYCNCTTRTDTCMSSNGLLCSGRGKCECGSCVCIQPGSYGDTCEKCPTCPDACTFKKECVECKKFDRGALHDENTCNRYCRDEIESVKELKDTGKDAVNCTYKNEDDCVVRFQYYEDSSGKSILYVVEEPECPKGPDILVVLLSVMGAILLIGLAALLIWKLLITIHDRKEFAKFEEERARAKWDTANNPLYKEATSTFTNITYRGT
T2 sequence (P06756 31-889 partner limits assumed): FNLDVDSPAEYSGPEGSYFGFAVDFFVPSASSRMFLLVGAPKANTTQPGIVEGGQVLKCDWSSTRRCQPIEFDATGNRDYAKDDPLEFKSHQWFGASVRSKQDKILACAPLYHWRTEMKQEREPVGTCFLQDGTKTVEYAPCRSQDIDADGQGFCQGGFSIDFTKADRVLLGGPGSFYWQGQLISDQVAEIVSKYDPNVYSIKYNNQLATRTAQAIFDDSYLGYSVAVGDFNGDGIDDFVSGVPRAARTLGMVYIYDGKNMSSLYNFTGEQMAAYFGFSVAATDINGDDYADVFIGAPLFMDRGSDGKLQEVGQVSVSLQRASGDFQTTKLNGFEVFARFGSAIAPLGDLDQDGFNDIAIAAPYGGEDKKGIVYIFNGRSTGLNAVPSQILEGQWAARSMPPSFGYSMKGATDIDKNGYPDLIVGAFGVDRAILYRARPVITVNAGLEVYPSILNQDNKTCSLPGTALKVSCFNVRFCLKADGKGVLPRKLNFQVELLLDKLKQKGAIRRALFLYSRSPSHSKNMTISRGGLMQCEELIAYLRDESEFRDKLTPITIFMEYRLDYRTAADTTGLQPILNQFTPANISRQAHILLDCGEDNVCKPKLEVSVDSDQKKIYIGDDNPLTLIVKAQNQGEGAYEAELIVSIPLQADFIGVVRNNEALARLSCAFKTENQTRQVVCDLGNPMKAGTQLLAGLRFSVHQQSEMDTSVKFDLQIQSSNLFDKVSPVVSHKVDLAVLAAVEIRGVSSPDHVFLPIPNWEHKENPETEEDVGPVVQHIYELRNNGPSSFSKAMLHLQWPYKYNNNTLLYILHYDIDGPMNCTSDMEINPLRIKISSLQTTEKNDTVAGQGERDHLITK
T2 sequence (P06756 891-1048 partner limits assumed): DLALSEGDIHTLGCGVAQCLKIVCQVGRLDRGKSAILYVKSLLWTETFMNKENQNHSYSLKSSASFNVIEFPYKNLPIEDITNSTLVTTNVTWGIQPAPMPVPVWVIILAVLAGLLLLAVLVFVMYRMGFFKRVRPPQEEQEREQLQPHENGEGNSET
T3 sequence (P05106 27-788): as the sequence (P05106 27-788) above
T3 sequence (P06756 31-889 partner limits assumed): as the sequence (P06756 31-889 partner limits assumed) above
T3 sequence (P06756 891-1048 partner limits assumed): as the sequence (P06756 891-1048 partner limits assumed) above

B1: Vitaxin®: humanized blocking monoclonal antibody that binds Integrin αVβ3 (MEDI-522, MedImmune); humanized and optimized version of LM609 (antibody, chains of the INN, looked up, V domains shown)
VH: QVQLVESGGGVVQPGRSLRLSCAASGFTFSSYDMSWVRQAPGKGLEWVAKVSSGGGSTYYLDTVQGRFTISRDNSKNTLYLQMNSLRAEDTAVYYCARHLHGSFASWGQGTTVTVSS
VL: EIVLTQSPATLSLSPGERATLSCQASQSISNFLHWYQQRPGQAPRLLIRYRSQSISGIPARFSGSGSGTDFTLTISSLEPEDFAVYYCQQSGSWPLTFGGGTKVEIK
Turning to B1, the “Fold Increase Over Control (mean channel fluorescence)” value in the experiment with hamster αvβ3 (Hamster CCL-49 melanoma, 5×10^5 cells, 0.5 μg antibody, vs isotype matched control antibody) came out at 12 fold; with Rat αvβ3, 0.95 fold; with human αvβ3 (Human HMVEC endothelial), 8.9 fold; in the experiment with human αvβ3 (Human M21 melanoma), 73 fold; with Rabbit αvβ3 (Rabbit VX7 carcinoma, 5×10^5 cells, 0.5 μg antibody, vs isotype matched control antibody), 17 fold. Moreover, in the experiment with hamster αvβ3 (setting [3]), the “binding to hamster αvβ3 (in words)” value is recorded as “recognized; also recorded: capable of binding”. Besides, the “binding to human αvβ3 (in words)” value with human αvβ3 (setting [3]) is given as “recognized; also recorded: capable of binding”. For the same molecule, the “binding to rabbit αvβ3 (in words)” value in the experiment with Rabbit αvβ3 (setting [3]) is recorded as “recognized”. Besides, the results for the “Staining of Placental Trophoblasts” value in experiment [1] and in experiment [2] were “recognized” and “Negative”, respectively.
